From PMC6864063, “Molecular basis for the interaction between human choline kinase alpha and the SH3 domain of the c-Src tyrosine kinase” (Scientific Reports, 2019)

Target: T1, Choline kinase alpha, full-length (FL) wild type (human, UniProt P35790 1-457)
T1 construct: Choline kinase alpha, unspliced variant ChoKα1, 457 residues, human, UniProt P35790; full length, up to Val457; Cleaved ChoKα constructs were the probes of the pull-downs; also called ChoKα; ChoKα1; source: E. coli Rosetta (DE3)pLysS, purified (HisTrap Ni2+ column, S-200 gel filtration); not shown: His6, N-terminal, cleaved; SUMO, N-terminal, cleaved
T1 sequence (P35790 whole entry, canonical isoform): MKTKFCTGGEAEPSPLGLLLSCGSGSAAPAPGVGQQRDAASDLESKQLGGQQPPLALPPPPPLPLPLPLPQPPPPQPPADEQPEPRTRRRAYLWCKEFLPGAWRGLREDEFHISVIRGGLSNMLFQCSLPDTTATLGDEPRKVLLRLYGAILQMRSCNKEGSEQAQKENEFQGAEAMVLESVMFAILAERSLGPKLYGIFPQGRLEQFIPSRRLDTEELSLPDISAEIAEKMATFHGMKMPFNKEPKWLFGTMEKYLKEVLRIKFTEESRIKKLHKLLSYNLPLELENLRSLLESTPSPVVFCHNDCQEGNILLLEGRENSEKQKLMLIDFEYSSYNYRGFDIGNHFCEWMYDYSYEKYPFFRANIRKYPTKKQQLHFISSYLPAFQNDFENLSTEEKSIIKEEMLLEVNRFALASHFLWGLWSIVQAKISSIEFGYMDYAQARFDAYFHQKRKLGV
Experiment: SPR; SH3 domains immobilised on one CM5 chip, ChoKα injected in triplicate, 0.1 to 30 µM, 2 min, PBS pH 7.5, 30 µL/min; steady-state KD from RUmax
Details: both partners purified

Kd: 25.9 µM
B1: Hck SH3 domain (domain or fragment)
chain: not shown
notes: Src-family kinase Hck, SH3 domain; source: recombinant, purified
